These are literature values, as cited in PMC4826273.

The data set addresses Dll-1 (Homo sapiens) (UniProt O00548). As to the kind of experiment: surface plasmon resonance.
Sequence of UniProt O00548 (O00548 18-545): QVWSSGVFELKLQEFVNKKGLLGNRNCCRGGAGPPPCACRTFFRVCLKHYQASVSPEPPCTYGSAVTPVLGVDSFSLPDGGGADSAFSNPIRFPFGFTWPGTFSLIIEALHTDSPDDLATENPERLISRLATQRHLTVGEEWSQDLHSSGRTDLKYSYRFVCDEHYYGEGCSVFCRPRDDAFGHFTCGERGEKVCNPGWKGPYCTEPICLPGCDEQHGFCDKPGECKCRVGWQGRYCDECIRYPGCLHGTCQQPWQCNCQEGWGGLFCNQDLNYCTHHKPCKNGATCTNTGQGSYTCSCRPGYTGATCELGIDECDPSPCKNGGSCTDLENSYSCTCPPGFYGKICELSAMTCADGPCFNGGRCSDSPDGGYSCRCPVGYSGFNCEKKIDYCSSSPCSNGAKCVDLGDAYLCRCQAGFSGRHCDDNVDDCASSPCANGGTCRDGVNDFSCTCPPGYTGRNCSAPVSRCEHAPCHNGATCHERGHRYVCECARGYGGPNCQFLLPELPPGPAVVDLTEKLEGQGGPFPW

With Notch1 (from UniProt P46531), the Kd is 130 µM.
